T1: GST-Dbf4 (budding yeast, UniProt P32325 1-704)
T1 sequence (looked up): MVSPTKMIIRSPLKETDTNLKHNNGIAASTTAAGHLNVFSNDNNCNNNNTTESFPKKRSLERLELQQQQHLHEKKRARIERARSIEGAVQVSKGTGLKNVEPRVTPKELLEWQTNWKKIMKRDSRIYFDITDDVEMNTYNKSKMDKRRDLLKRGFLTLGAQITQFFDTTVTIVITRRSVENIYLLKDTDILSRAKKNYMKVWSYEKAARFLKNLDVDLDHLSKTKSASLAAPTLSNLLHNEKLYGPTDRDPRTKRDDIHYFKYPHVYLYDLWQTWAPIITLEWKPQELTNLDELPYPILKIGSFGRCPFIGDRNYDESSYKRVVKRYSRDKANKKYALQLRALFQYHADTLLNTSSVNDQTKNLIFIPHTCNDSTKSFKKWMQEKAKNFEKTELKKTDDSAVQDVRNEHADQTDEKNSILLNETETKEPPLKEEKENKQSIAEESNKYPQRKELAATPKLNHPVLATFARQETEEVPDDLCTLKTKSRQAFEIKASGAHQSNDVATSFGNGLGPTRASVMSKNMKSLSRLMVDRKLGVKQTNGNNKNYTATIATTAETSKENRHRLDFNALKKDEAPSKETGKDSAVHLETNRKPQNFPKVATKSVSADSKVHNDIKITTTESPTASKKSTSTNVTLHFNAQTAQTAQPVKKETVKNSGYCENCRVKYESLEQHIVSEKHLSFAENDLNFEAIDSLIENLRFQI

T2: GST-Cdc45 (budding yeast, UniProt Q08032 1-650)
T2 sequence (looked up): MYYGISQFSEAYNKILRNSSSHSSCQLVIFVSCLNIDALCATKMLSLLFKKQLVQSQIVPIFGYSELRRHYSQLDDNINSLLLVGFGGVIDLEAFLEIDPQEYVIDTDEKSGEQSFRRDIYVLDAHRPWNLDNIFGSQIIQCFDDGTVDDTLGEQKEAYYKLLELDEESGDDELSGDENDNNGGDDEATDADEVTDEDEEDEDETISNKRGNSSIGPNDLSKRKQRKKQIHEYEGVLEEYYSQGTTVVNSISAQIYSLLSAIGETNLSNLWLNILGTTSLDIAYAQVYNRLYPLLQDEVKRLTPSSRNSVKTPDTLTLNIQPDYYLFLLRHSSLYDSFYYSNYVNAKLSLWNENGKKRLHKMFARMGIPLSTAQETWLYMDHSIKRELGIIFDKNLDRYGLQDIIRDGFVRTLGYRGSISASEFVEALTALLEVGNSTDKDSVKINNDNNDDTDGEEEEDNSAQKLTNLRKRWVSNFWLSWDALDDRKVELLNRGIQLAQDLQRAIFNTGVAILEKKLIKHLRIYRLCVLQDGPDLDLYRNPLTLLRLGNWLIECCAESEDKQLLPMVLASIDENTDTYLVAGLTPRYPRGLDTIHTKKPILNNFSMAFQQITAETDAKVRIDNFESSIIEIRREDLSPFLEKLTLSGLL


Assays:
[1] = molecular target: T1, GST-Dbf4; assay: pull-down
[2] = molecular target: T2, GST-Cdc45; assay: pull-down

binding result [1] | binding result [2] | Binder
binds | – | PKA-Mcm10 (wild-type), radiolabeled (natural protein, Saccharomyces cerevisiae, UniProt P32354 1-571, looked up, 32P label put on the PKA tag by protein kinase A with [gamma-32P]-ATP) MNDPREILAVDPYNNITSDEEDEQAIARELEFMERKRQALVERLKRKQEFKKPQDPNFEAIEVPQSPTKNRVKVGSHNATQQGTKFEGSNINEVRLSQLQQQPKPPASTTTYFMEKFQNAKKNEDKQIAKFESMMNARVHTFSTDEKKYVPIITNELESFSNLWVKKRYIPEDDLKRALHEIKILRLGKLFAKIRPPKFQEPEYANWATVGLISHKSDIKFTSSEKPVKFFMFTITDFQHTLDVYIFGKKGVERYYNLRLGDVIAILNPEVLPWRPSGRGNFIKSFNLRISHDFKCILEIGSSRDLGWCPIVNKKTHKKCGSPINISLHKCCDYHREVQFRGTSAKRIELNGGYALGAPTKVDSQPSLYKAKGENGFNIIKGTRKRLSEEEERLKKSSHNFTNSNSAKAFFDEKFQNPDMLANLDNKRRKIIETKKSTALSRELGKIMRRRESSGLEDKSVGERQKMKRTTESALQTGLIQRLGFDPTHGKISQVLKSSVSGSEPKNNLLGKKKTVINDLLHYKKEKVILAPSKNEWFKKRSHREEVWQKHFGSKETKETSDGSASDLEII
binds | binds | PKA-Mcm10-m2,3,4 (Mcm10-K216E-N313E-K314E), radiolabeled (natural protein, Saccharomyces cerevisiae, UniProt P32354 1-571, looked up, 32P label put on the PKA tag by protein kinase A with [gamma-32P]-ATP) MNDPREILAVDPYNNITSDEEDEQAIARELEFMERKRQALVERLKRKQEFKKPQDPNFEAIEVPQSPTKNRVKVGSHNATQQGTKFEGSNINEVRLSQLQQQPKPPASTTTYFMEKFQNAKKNEDKQIAKFESMMNARVHTFSTDEKKYVPIITNELESFSNLWVKKRYIPEDDLKRALHEIKILRLGKLFAKIRPPKFQEPEYANWATVGLISHESDIKFTSSEKPVKFFMFTITDFQHTLDVYIFGKKGVERYYNLRLGDVIAILNPEVLPWRPSGRGNFIKSFNLRISHDFKCILEIGSSRDLGWCPIVEEKTHKKCGSPINISLHKCCDYHREVQFRGTSAKRIELNGGYALGAPTKVDSQPSLYKAKGENGFNIIKGTRKRLSEEEERLKKSSHNFTNSNSAKAFFDEKFQNPDMLANLDNKRRKIIETKKSTALSRELGKIMRRRESSGLEDKSVGERQKMKRTTESALQTGLIQRLGFDPTHGKISQVLKSSVSGSEPKNNLLGKKKTVINDLLHYKKEKVILAPSKNEWFKKRSHREEVWQKHFGSKETKETSDGSASDLEII
